# Assay results as given in paper doi:10.1101/2020.10.19.345710 (bioRxiv, 2020).
# Where a chain is given by its changes, count along the chain named. Numbers in names are those of the source.
# B1: FUS LC, low complexity domain of Fused in sarcoma (FUS), residues 1-163 (domain or fragment, UniProt P35637 1-163, looked up)
# chain: MASNDYTQQATQSYGAYPTQPGQGYSQQSSQPYGQQSYSGYSQSTDTSGYGQSSYSSYGQSQNTGYGTQSTPQGYGSTGGYGSSQSSQSSYGQQSSYPGYGQQPAPSSTSGSYGSSSQSSSYGQPQSGSYSQQPSYGGQQQSYGQQQSYNPPQGYGQQNQYNS
# B2: FUS LC G156E, low complexity domain of FUS (residues 1-163) with the pathogenic G156E mutation (domain or fragment, UniProt P35637 1-163, looked up)
# chain: B1 chain with G156E
# Target: the molecule itself
# Experiment: thioflavin T fluorescence
row,Protein,binding result
1,B1,binds
2,B2,binds
